B1: INTS3 (parent)
chain: KKREFRFHPIKETVVEEPVDITPY
B2: KCNK9 (parent)
chain: DVPDLQSVCSCTCYRSQDYGGRSV

Variants of: B1
Assay: protein stability index of a GFP-peptide fusion (GPS, HEK-293T) (PSI 1-6); higher = more stable
Conditions: c terminus: a fixed tail appended
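Note: lentivirally expressed fusions sorted by FACS into six bins by GFP to DsRed ratio, PSI derived from sequencing read proportions per bin multiplied by bin number.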

| Variant | protein stability index |
| --- | --- |
| KKREFRLHPIKETVVEEPVDITPY [F7L] | 4.21 |
| KKREFRGHPIKETVVEEPVDITPY [F7G] | 4.71 |
| KKREFRNHPIKETVVEEPVDITPY [F7N] | 4.91 |
| KKREFRQHPIKETVVEEPVDITPY [F7Q] | 4.24 |
| KKREFRKHPIKETVVEEPVDITPY [F7K] | 4.39 |
| KKREFRIHPIKETVVEEPVDITPY [F7I] | 4.23 |
| KKREFCFHPIKETVVEEPVDITPY [R6C] | 3.87 |
| KKREFTFHPIKETVVEEPVDITPY [R6T] | 4.38 |
| KKREFKFHPIKETVVEEPVDITPY [R6K] | 4.23 |
| KKREFHFHPIKETVVEEPVDITPY [R6H] | 4.52 |
| KKREFRFVPIKETVVEEPVDITPY [H8V] | 2.49 |
| KKREFRFNPIKETVVEEPVDITPY [H8N] | 3.96 |
| KKREFRFQPIKETVVEEPVDITPY [H8Q] | 3.45 |
| KKREFRFFPIKETVVEEPVDITPY [H8F] | 3.49 |
| KKREFRFIPIKETVVEEPVDITPY [H8I] | 2.8 |
| KKREFRFAPIKETVVEEPVDITPY [H8A] | 3.27 |
| KKREFRFHPIKETVVEEDVDITPY [P18D] | 2.12 |
| KKREFRFHPIKETVVEETVDITPY [P18T] | 1.36 |
| KKREFRFHPIKETVVEEWVDITPY [P18W] | 2.29 |
| KKREFRFHPIKETVVEEEVDITPY [P18E] | 2.05 |
| KKREFRFHPIKETVVEEGVDITPY [P18G] | 1.79 |
| KKREFRFHPIKETVVEEHVDITPY [P18H] | 1.74 |
| KKREFRFHPIKETVVEERVDITPY [P18R] | 2.78 |
| KKREFRFHPIKETVVEEPVKITPY [D20K] | 1.05 |
| KKREFRFHPIKETVVEEPVMITPY [D20M] | 1.96 |
| KKREFRFHPIKETVVEEPVWITPY [D20W] | 1.6 |
| KKREFRFHPIKETVVEEPVCITPY [D20C] | 1.61 |
| KKREFRFHPIKETVVEEPVEITPY [D20E] | 2.35 |

Variants of: B2
Assay: as above
Conditions: c terminus: a fixed tail appended

| Variant | protein stability index |
| --- | --- |
| DVPDLQSVCSCTCYRSQDYGGRYV [S23Y] | 2.59 |
| DVPDLQSVCSCTCYRSQDYGGRAV [S23A] | 1.8 |
| DVPDLQSVCSCTCYRSQDYGGRLV [S23L] | 2.27 |
| DVPDLQSVCSCTCYRSQDYGGRDV [S23D] | 2.1 |
| DVPDLQSVCSCTCYRSQDYGGRHV [S23H] | 1.67 |
| DVPDLQSVCSCTCYRSQDYGGRNV [S23N] | 2.14 |
| DVPDLQSVCSCTCYRSQDYGGRVV [S23V] | 1.32 |
| DVPDLQSVCSCTCYRSQDYGGRCV [S23C] | 1.98 |
| DVPDLQSVCSCTCYRSQDYGGRKV [S23K] | 4.09 |
| DVPDLQSVCSCTCYRSQDYGGRRV [S23R] | 1.48 |
| DVPDLQSVCSCTCYRSQDYGGRFV [S23F] | 2.11 |
| DVPDLQSVCSCTCYRSQDYGGRQV [S23Q] | 2.12 |
| DVPDLQSVCSCTCYRSQDYGGRWV [S23W] | 2.53 |
| DVPDLQSVCSCTCYRSQDYGGRIV [S23I] | 3.17 |
| DVPDLQSVCSCTCYRSQDYGGRGV [S23G] | 2.96 |
| DVPDLQSVCSCTCYRSQDYGVRSV [G21V] | 2.16 |
| DVPDLQSVCSCTCYRSQDYGRRSV [G21R] | 1.62 |
| DVPDLQSVCSCTCYRSQDYGSRSV [G21S] | 3.41 |
| DVPDLQSVCSCTCYRSQDYGDRSV [G21D] | 2.22 |
| DVPDLQSVCSCTCYRSQDYGHRSV [G21H] | 1.9 |
| DVPDLQSVCSCTCYRSQDYGKRSV [G21K] | 1.9 |
| DVPDLQSVCSCTCYRSQDYGTRSV [G21T] | 2.63 |

| Variant | protein stability index |
| --- | --- |
| DVPDLQSVCSCTCYRSQDYGYRSV [G21Y] | 2.08 |
| DVPDLQSVCSCTCYRSQDYGPRSV [G21P] | 2.06 |
| DVPDLQSVCSCTCYRSQDYGARSV [G21A] | 1.85 |
| DVPDLQSVCSCTCYRSQDYGQRSV [G21Q] | 1.4 |
| DVPDLQSVCSCTCYRSQDYGLRSV [G21L] | 1 |
| DVPDLQSVCSCTCYRSQDYGFRSV [G21F] | 1.81 |
| DVPDLQSVCSCTCYRSQDYTGRSV [G20T] | 1.87 |
| DVPDLQSVCSCTCYRSQDYVGRSV [G20V] | 1.2 |
| DVPDLQSVCSCTCYRSQDYYGRSV [G20Y] | 2.8 |
| DVPDLQSVCSCTCYRSQDYGGPSV [R22P] | 2.16 |
| DVPDLQSVCSCTCYRSQDYGGTSV [R22T] | 1.89 |
| DVPDLQSVCSCTCYRSQDYGGISV [R22I] | 1.93 |
| DVPDLQSVCSCTCYRSQDYGGMSV [R22M] | 2.04 |
| DVPDLQSVCSCTCYRSQDYGGSSV [R22S] | 2.2 |
| DVPDLQSVCSCTCYRSQDYGGGSV [R22G] | 2.06 |
| DVPDLQSVCSCTCYRSQDYGGCSV [R22C] | 2.38 |
| DVPDLQSVCSCTCYRSQDYGGDSV [R22D] | 3.58 |
| DVPDLQSVCSCTCYRSQDYGGQSV [R22Q] | 3.22 |
| DVPDLQSVCSCTCYRSQDYGGWSV [R22W] | 2.4 |
| DVPDLQSVCSCTCYRSQDYGGYSV [R22Y] | 1.47 |
| DVPDLQSVCSCTCYRSQDYGGLSV [R22L] | 3.27 |
| DVPDLQSVCSCTCYRSQDYGGNSV [R22N] | 2.6 |

| Variant | protein stability index |
| --- | --- |
| DVPDLQSVCSCTCYRSQDYGGHSV [R22H] | 2.43 |
| DVPDLQSVCSCTCYRSQDYGGKSV [R22K] | 3.06 |
| DVPDLQSVCSCTCYRSQDYGGVSV [R22V] | 2.82 |
| DVPDLQSVCSCTCYRSQDYGGFSV [R22F] | 1.33 |
| DVPDLQSVCSCTCYRSQDYGGESV [R22E] | 3.3 |
| DVPDLQSVCSCTCYRSQDYGGASV [R22A] | 1.84 |
| DVPDLQSVCSCTCYRSQDYGGRSW [V24W] | 2.42 |
| DVPDLQSVCSCTCYRSQDYGGRSY [V24Y] | 1.49 |
| DVPDLQSVCSCTCYRSQDYGGRSP [V24P] | 2.35 |
| DVPDLQSVCSCTCYRSQDYGGRSF [V24F] | 1.13 |
| DVPDLQSVCSCTCYRSQDYGGRST [V24T] | 2.73 |
| DVPDLQSVCSCTCYRSQDYGGRSA [V24A] | 1.68 |
| DVPDLQSVCSCTCYRSQDYGGRSS [V24S] | 1.68 |
| DVPDLQSVCSCTCYRSQDYGGRSK [V24K] | 1.45 |
| DVPDLQSVCSCTCYRSQDYGGRSC [V24C] | 1.49 |
| DVPDLQSVCSCTCYRSQDYGGRSN [V24N] | 2.5 |
| DVPDLQSVCSCTCYRSQDYGGRSL [V24L] | 2.44 |
| DVPDLQSVCSCTCYRSQDYGGRSQ [V24Q] | 1.72 |
| DVPDLQSVCSCTCYRSQDYGGRSI [V24I] | 2.37 |
| DVPDLQSVCSCTCYRSQDYGGRSH [V24H] | 1.64 |
| DVPDLQSVCSCTCYRSQDYGGRSE [V24E] | 2.15 |
| DVPDLQSVCSCTCYRSQDYGGRSD [V24D] | 2.69 |

Reference: the supplement of paper PMC10567573
